Test results reported in US20160068860A1, “TRANSGENIC PLANTS” (CONSEJO SUPERIOR DE INVESTIGACIONES CIENTIFICAS (CSIC), priority 2013, published 2016).

How the values were obtained:
[1] = molecular target: monomeric PYR/PYL receptors; conditions: read-out: Kd for ABA; cited from earlier work
[2] = molecular target: PYR/PYL receptors in the presence of clade A PP2Cs (ternary complexes); conditions: ternary complexes in the presence of certain clade A PP2Cs; read-out: Kd for ABA; cited from earlier work
[3] = molecular target: dimeric PYR/PYL receptors; conditions: read-out: Kd for ABA; cited from earlier work
[4] = molecular target: T1, PYL4H82R V97A (AtPYL H82 and V97A)
T1 chain: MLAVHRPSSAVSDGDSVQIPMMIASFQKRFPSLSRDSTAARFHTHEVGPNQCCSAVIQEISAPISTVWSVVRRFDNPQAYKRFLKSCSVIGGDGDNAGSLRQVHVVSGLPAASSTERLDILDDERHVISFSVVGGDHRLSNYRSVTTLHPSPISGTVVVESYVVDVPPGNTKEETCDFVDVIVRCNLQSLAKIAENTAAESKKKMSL

[5] = molecular target: T2, PYL4C176R F130Y (AtPYL F130Y and C176R)
T2 chain: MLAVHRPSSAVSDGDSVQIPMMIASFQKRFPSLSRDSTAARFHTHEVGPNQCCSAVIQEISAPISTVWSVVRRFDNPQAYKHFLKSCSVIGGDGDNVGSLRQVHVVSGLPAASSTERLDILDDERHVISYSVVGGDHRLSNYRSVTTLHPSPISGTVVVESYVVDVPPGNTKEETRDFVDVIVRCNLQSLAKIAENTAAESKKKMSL

[6] = molecular target: T3, HAB1 (clade A protein phosphatase 2C) (Arabidopsis thaliana, UniProt Q9CAJ0 23-511, limits assumed); experiment: cell-based or functional assay
T3 sequence (looked up): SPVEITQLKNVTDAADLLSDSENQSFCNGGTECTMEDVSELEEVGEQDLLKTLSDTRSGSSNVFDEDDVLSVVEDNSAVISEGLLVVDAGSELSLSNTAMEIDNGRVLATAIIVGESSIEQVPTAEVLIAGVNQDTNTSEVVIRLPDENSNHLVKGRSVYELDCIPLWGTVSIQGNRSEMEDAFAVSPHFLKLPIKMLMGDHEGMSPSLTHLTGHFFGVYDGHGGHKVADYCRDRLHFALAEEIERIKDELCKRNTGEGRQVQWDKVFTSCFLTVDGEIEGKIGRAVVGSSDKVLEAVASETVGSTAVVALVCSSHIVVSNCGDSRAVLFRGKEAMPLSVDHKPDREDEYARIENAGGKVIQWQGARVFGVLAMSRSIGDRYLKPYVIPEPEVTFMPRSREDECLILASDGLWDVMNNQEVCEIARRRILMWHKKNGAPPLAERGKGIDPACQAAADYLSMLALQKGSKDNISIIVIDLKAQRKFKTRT

[7] = molecular target: T4, PP2CA (clade A protein phosphatase 2C, At3g11410) (Arabidopsis thaliana, UniProt P49598 1-399, limits assumed); experiment: cell-based or functional assay
T4 sequence (looked up): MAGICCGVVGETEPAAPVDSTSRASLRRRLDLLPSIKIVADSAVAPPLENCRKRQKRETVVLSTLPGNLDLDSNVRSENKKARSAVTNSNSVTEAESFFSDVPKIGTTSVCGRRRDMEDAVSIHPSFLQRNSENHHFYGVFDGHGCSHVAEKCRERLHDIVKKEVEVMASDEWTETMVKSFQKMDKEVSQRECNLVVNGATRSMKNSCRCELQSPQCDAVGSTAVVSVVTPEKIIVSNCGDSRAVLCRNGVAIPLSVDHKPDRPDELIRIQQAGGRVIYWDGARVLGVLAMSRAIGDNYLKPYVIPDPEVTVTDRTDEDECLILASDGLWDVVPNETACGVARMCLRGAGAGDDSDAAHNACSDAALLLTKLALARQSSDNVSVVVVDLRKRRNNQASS

PP2CA [8] = experiment: Yeast two hybrid (Y2H) growth assay with PP2CA; assay type: cell-based, Arabidopsis; conditions: for interaction with PP2CA in Y2H assay: absence of ABA, growth on medium lacking His and Ade
Method: We conducted error-prone PCR mutagenesis by amplification of the PYL4 open reading frame using the following primers: FPYL4Ncol, 5″-GCAGCAGCCATGGTTGCCG TTCACCGTCCTTCT and RPYL4EcoRIstop: […] TCT TCTTCTT, and the following conditions: 2 mM dGTP, dCTP and dTTP, 0.5 mM dATP, 12 mM MgCl2 and Taq polymerase. The PCR product was Ncol-EcoRI doubly digested, cloned into the pGBKT7 vector and DH10B cells were transformed by electroporation. Thus, we generated an allele library in E. coli of approximately 10,000 PYL4 mutant clones. […] The library was shuttled to yeast AH109 by co-transformation with pGAD7-PP2CA. Yeast transformants were pooled and clones able to grow in the absence of exogenous ABA in medium lacking histidine and adenine were selected. Yeast plasmids were extracted, sequenced and retransformed in yeast cells to recapitulate the phenotype. Protocols for yeast two hybrid assays were similar to those described previously (Saez et al., 2008).

PP2CA [9] = molecular target: T5, PP2CA (Arabidopsis thaliana, UniProt O80920+P49598, C176R/F130Y); experiment: In vitro phosphatase activity assay with pNPP substrate, PP2CA; assay type: biochemical; conditions: presence of ABA
T5 construct: made in house; host or cells: E. coli BL21 (DE3)
Method: (§1) Phosphatase activity was measured using as a substrate either pNPP or phosphorylated ΔC-ABF2, ΔC-ABI5 and SLAC11-186 proteins. For the pNPP substrate, assays were performed in a 100 μl solution containing 25 mM Tris-HCl pH 7.5, 2 mM MnCl2 and 5 mM pNPP. Assays contained 2 μM phosphatase (PP2CA or HAB1), 4 μM receptor and the indicated concentrations of ABA. Phosphatase activity was recorded with a ViktorX5 reader at 405 nm every 60 seconds over 30 minutes and the activity obtained after 30 minutes is indicated in the graphics. In order to obtain phosphorylated ΔCABF2, ΔC-ABI5 and SLAC11-186 proteins, OST1 phosphorylation assays were done basically as described previously (Dupeux et al., 2011 b). ΔC-ABF2 and SLAC11-186 N-terminal fragments were prepared as described (Antoni et al., 2012; Vahisalu et al., 2010). ΔC-ABI5 recombinant protein (amino acid residues 1-200, containing the C1, C2 and C3 target sites of ABA-activated SnRK2s) was expressed in the pETM11 vector as described above. The reaction mixture containing the OST1 kinase and either ΔCABF2, ΔC-ABI5 or SLAC11-186 recombinant proteins were incubated for 50 min at room temperature in 30 μl of kinase buffer: 20 mM Tris-HCl pH 7.8, 20 mM MgCl2, 2 mM MnCl2, and 3.5 μCi of γ-32ATP (3000 Ci/mmol). Thus, OST1 was autophosphorylated and in turn it phosphorylated ΔC-ABF2, ΔC-ABI5 and SLAC11-186 proteins. Next, they were used as substrates of PP2CA that was preincubated (or not) for 10 with PYL4 or PYL4A194T (1:10 phosphatase:receptor ratio) either in the absence or presence of 30 μM ABA. The reaction was stopped by adding Laemmli buffer and the proteins were separated by SDS-PAGE using an 8% acrylamide gel and transferred to an Immobilon-P membrane (Millipore). Radioactivity was detected and quantified using a Phosphorimage system (FLA5100, Fujifilm). After scanning, the same membrane was used for Ponceau staining. The data presented are averages of at least three independent experiments.

PP2CA [10] = experiment: as above; assay type: biochemical, Arabidopsis; conditions: absence of ABA
Method: as §1

[11] = molecular target: T4, PP2CA (clade A protein phosphatase 2C, …); experiment: yeast two-hybrid growth assay, presence of ABA
[12] = system: Arabidopsis thaliana plants; experiment: Seedling establishment and early seedling growth of OE lines on ABA; assay type: in vivo; conditions: 0.25 or 0.5 μM ABA
Source text: PYL4 or PYL4 mutants were cloned into pCR8/GW/TOPO entry vector (Invitrogen) and recombined by LR reaction into the gateway compatible ALLIGATOR2 vector (Bensmihen et al., 2004). This construct drives expression of PYL4 under control of the 35S CaMV promoter and introduces a triple HA epitope at the N-terminus of the protein. Selection of transgenic lines is based on the visualization of GFP in seeds, whose expression is driven by the specific seed promoter At2S3. The ALLIGATOR2-35S:3HA-PYL4 or mutant constructs were transferred to Agrobacterium tumefaciens C58C1 (pGV2260) (Deblaere et al., 1985) by electroporation and used to transform Columbia wild type plants by the floral dip method. T1 transgenic seeds were selected based on GFP visualization and sowed in soil to obtain the T2 generation. At least three independent transgenic lines were generated for each construct. Homozygous T3 progeny was used for further studies and expression of HA-tagged protein in 21-d-old seedlings was verified by immunoblot analysis using anti-HA-peroxidase (Roche).
After surface sterilization of the seeds, stratification was conducted in the dark at 4° C. for 3 d. Approximately 100 seeds of each genotype were sowed on MS plates supplemented with different ABA concentrations per experiment. To score seed germination, radical emergence was analyzed at 72 h after sowing. Seedling establishment was scored as the percentage of seeds that developed green expanded cotyledons and the first pair of true leaves at 7-d.

[13] = molecular target: T4, PP2CA (clade A protein phosphatase 2C, …); experiment: yeast two-hybrid growth assay, absence of ABA

## CC1=CC(=O)CC(C)(C)[C@@]1(O)/C=C/C(C)=C\C(=O)O [ABA, abscisic acid]
[1]
  Kd: ~1000 nM
[2]
  Kd: 30 to 60 nM
[3]
  Kd: > 50000 nM

B1: PP2CA (clade A protein phosphatase 2C, At3g11410) (protein)
chain: MAGICCGVVGETEPAAPVDSTSRASLRRRLDLLPSIKIVADSAVAPPLENCRKRQKRETVVLSTLPGNLDLDSNVRSENKKARSAVTNSNSVTEAESFFSDVPKIGTTSVCGRRRDMEDAVSIHPSFLQRNSENHHFYGVFDGHGCSHVAEKCRERLHDIVKKEVEVMASDEWTETMVKSFQKMDKEVSQRECNLVVNGATRSMKNSCRCELQSPQCDAVGSTAVVSVVTPEKIIVSNCGDSRAVLCRNGVAIPLSVDHKPDRPDELIRIQQAGGRVIYWDGARVLGVLAMSRAIGDNYLKPYVIPDPEVTVTDRTDEDECLILASDGLWDVVPNETACGVARMCLRGAGAGDDSDAAHNACSDAALLLTKLALARQSSDNVSVVVVDLRKRRNNQASS
[4]
  PP2CA phosphatase activity (pNPP substrate) in the absence of ABA: although the H82RV97A and F130Y C176R mutations promoted ABA-independent interactions in Y2H assay, they did not affect PP2CA activity in the absence of ABA
[5]
  PP2CA phosphatase activity (pNPP substrate) in the absence of ABA: although the H82RV97A and F130Y C176R mutations promoted ABA-independent interactions in Y2H assay, they did not affect PP2CA activity in the absence of ABA

B2: AtPYL4 wild type polypeptide (At2g38310) (receptor)
chain: MLAVHRPSSAVSDGDSVQIPMMIASFQKRFPSLSRDSTAARFHTHEVGPNQCCSAVIQEISAPISTVWSVVRRFDNPQAYKHFLKSCSVIGGDGDNVGSLRQVHVVSGLPAASSTERLDILDDERHVISFSVVGGDHRLSNYRSVTTLHPSPISGTVVVESYVVDVPPGNTKEETCDFVDVIVRCNLQSLAKIAENTAAESKKKMSL
[6]
  IC50 of inhibition of HAB1 phosphatase activity (pNPP substrate; 2 µM phosphatase, 4 µM receptor, ABA concentration varied): 0.25 µM
[7]
  IC50 of inhibition of PP2CA phosphatase activity (pNPP substrate; 2 µM phosphatase, 4 µM receptor, ABA concentration varied): 1 µM

B3: PYL4C176R F130Y: AtPYL4 mutant polypeptide with F130Y and C176R substitutions (SEQ ID NO. 63) (protein, listed as Arabidopsis thaliana)
chain: MLAVHRPSSAVSDGDSVQIPMMIASFQKRFPSLSRDSTAARFHTHEVGPNQCCSAVIQEISAPISTVWSVVRRFDNPQAYKHFLKSCSVIGGDGDNVGSLRQVHVVSGLPAASSTERLDILDDERHVISYSVVGGDHRLSNYRSVTTLHPSPISGTVVVESYVVDVPPGNTKEETRDFVDVIVRCNLQSLAKIAENTAAESKKKMSL
PP2CA [8]
  interaction with PP2CA in Y2H assay: enhanced the interaction of PYL4 and PP2CA in the absence of ABA
PP2CA [9]
  capacity to inhibit PP2CA: lower capacity to inhibit PP2CA
PP2CA [10]
  effect on PP2CA activity: did not affect PP2CA activity

B4: PYL4V97A (AtPYL V97A) (receptor)
chain: MLAVHRPSSAVSDGDSVQIPMMIASFQKRFPSLSRDSTAARFHTHEVGPNQCCSAVIQEISAPISTVWSVVRRFDNPQAYKHFLKSCSVIGGDGDNAGSLRQVHVVSGLPAASSTERLDILDDERHVISFSVVGGDHRLSNYRSVTTLHPSPISGTVVVESYVVDVPPGNTKEETCDFVDVIVRCNLQSLAKIAENTAAESKKKMSL
[11]
  binding result: binds
PP2CA [8]
  interaction with PP2CA in Y2H assay: did not affect the interaction in the absence of ABA
PP2CA [8]; presence of ABA (50 μM)
  yeast growth in Y2H assay with PP2CA: increased yeast growth
[12]
  ABA-mediated inhibition of seedling establishment: enhanced ABA-mediated inhibition of seedling establishment compared to non-transformed plants

B5: PYL4C176R F130Y (AtPYL F130Y and C176R) (receptor)
chain: MLAVHRPSSAVSDGDSVQIPMMIASFQKRFPSLSRDSTAARFHTHEVGPNQCCSAVIQEISAPISTVWSVVRRFDNPQAYKHFLKSCSVIGGDGDNVGSLRQVHVVSGLPAASSTERLDILDDERHVISYSVVGGDHRLSNYRSVTTLHPSPISGTVVVESYVVDVPPGNTKEETRDFVDVIVRCNLQSLAKIAENTAAESKKKMSL
notes: also called F130Y C176R
[13]
  binding result: binds
